Target: endogenous active RhoA (RhoA-GTP) of HeLa S3 cells (UniProt P61586)
Assay: cell-based or functional assay

Chain of endogenous active RhoA (RhoA-GTP) of HeLa S3 cells (P61586 1-190 limits assumed): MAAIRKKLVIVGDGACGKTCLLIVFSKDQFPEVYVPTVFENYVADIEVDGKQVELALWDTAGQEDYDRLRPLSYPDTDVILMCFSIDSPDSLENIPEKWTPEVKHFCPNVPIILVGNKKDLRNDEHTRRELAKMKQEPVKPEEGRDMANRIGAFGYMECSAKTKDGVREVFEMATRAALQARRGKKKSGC

- RhoA-GTP level after 15 min of EGF treatment (GST-RBD pull down): 50%
B1: F-H12 (VHH, part only; not given: Fbox domain and myc tag, not shown: small tags and cut ends)
chain, part: VQLQASGGGFVQPGGSLRLSCAASGDGSRIYAMGWFRQAPGKEREFVSAISWEQDWEHYYADSVKGRFTISRDNSKNTVYLQMNSLRAEDTATYYCAAFMTPHRNLTSMYWGQGTQVTVSS
